Measured values reported in the RNAGym collection of RNA variant scans (doi:10.1073/pnas.2313332121).

B1: TPR t1 (parent)
chain: GACCAAUCUGCCCUCAGAGCUCGAGAACAUCUUCGGAUGCAGAGGAGGCAGGCUUCGGUGGCGCGAUAGCGCCAACGUCCUCAACCUCCAAUGCAUCCCACCACAUGAUGAUGCCUGAAGAGCCUUGGUUUUUUG

Variants of: B1
Experiment: polymerase ribozyme fitness, log enrichment relative to wild type (log ratio); higher = more active; in vitro selection for triplet polymerase activity
Procedure, shortened: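 In triplicate, a single round of in vitro selection was run on each mutant library, PCR-built and transcribed, covering one subunit of a heterodimeric triplet polymerase ribozyme. Frozen incubation at −7 °C followed annealing with a biotinylated primer, partner subunit and triplets, and extended constructs were then gel-excised, streptavidin-captured and taken through RT-PCR. Fitness is the logarithm of genotype enrichment over wild-type enrichment, from inverse-variance-weighted replicate averages of Illumina-sequenced inputs and outputs. […] only genotypes with ≥10 input reads and ≥1 read per output were kept.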

| Variant | polymerase ribozyme fitness (log ratio) |
| --- | --- |
| G17A G44U C49U U55G | -4.05 |
| G17A C62U | -3.04 |
| G17A C62A | -4.08 |
| G17A A84U | -2.87 |
| A16U G47U G52A | -4.24 |
| G17A C73A G120C G135A | -1.5 |
| G17A G113U | -3.81 |
| G17A G113A | -3.43 |
| G17A A27C G57C C73A G93U G113C A118C U125A | -7.69 |
| G17A C34U C98U C124A | -5.98 |
| G17A U21A G36U A41U A84C C97U C124A | -6.13 |
| G17A C85U A91C A108G A111C C124U | -6.83 |
| G17A G61U C104U A111G | -2.95 |
| G17A A74U | -4.06 |
| G17U A18G C56G A84G U131G | -5.98 |
| G17C G120C | -1.58 |
| G17A A83G | -3.95 |
| G17A G52U | -4.1 |
| G17A A90C A95G C104U A119U | -3 |
| G17A G69U A118G | 0.157 |
| G17A G77A | -3.49 |

| Variant | polymerase ribozyme fitness (log ratio) |
| --- | --- |
| G17C A29U | -6.04 |
| G17C A29G | -4.75 |
| G17A G36C | -3.9 |
| G17C C62U | -4.67 |
| G17C C56U C89U | -3.95 |
| A16U G45A C70U A118U | -2 |
| A16U G61A | -0.972 |
| A16U G61C U130G | -2.75 |
| G17C G69U G120U G128A | -2.65 |
| G17A U55A C72A A84G | -5.99 |
| A16U G52U A111C U126G G127U | -2.8 |
| G17C A43G C101A C104A U106A U112G U126C | -6.47 |
| G17C C104A | -6.53 |
| A16U G69U C80G A90C | -6.49 |
| A16U G113A C123U | -4.77 |
| G17A G48C C49G A84U C124U | -2.52 |
| A16U U59A | 0.971 |
| A16U U59G | -1.3 |
| G17A C70U G120U | -2.58 |
| A16U G63A | -2.16 |
| G17A G61A C64U C73U A75C | -4.03 |

| Variant | polymerase ribozyme fitness (log ratio) |
| --- | --- |
| G17C A43U G61A U87G G120C | -1.48 |
| G17C G57A C124U | -5.29 |
| G17U A26G G71A C94A U112C C115A | -2.54 |
| G17C G113A | -6.34 |
| G17C U106A | -4.68 |
| G17C U78C C89A U96A | -4.94 |
| G17A A18C C86G | -3.63 |
| G17C C20A | -5.15 |
| G17A C56G | -3.4 |
| G17A A41C A43U G44C | -5.92 |
| G17C C20G C73A C88U C99A A100C | -4.19 |
| G17A G127C | -4.54 |
| G17C C28U C85A G110A G120C | -2.19 |
| G17C A26C A29G C62A G63U | -5.05 |
| G17A C28U C62U U109A U116G | -5.8 |
| G17A U112A | -1.5 |
| G17C A84U | -4.87 |
| G17A G63U | -3.9 |
| A16U U55A U81A A84C U132A | -2.61 |
| A16U U81A | -2.6 |
| A16U U81G | -5.13 |

| Variant | polymerase ribozyme fitness (log ratio) |
| --- | --- |
| G17A U131A | -1.99 |
| G17C G69U | -2.68 |
| G17A C22A | -5.66 |
| A16U G61U G135U | -1.98 |
| G17A C79G C124G U125A | -4.5 |
| A16U G69U C89U | -1.47 |
| G17A G39A C79U G110C | -7.24 |
| G17A C73U | -2.84 |
| G17C G61U C114A | -5.45 |
| A16U G61C G117C C124G | -4.49 |
| G17C U55G C56A G63C G77U G113A | -5.71 |
| A16U G117U C123A | -4.24 |
| A16U G52C G71U G117C A118G U126A | -6.61 |
| A16U G52U U78C A111C U126G G127U | -3.36 |
| G17C G69U C79G | -4.17 |
| G17A C56A G93U | -4.99 |
| G17A U59C G69U G120U | -2.26 |
| A16U G58A C62A | -3.9 |
| G17A C28G G48A U96G A100G U112G A121C | -6.43 |
| G17C C123A | -2.92 |
| A16U G47U G69C | -3.2 |
